The results in this text go back to patent US20180334496A1.

The experiment addresses recombinant human CFD mutant 1 (R157A, R207A), His-tagged (human) (UniProt P00746). Description: ELISA. (In general: ELISA stands for enzyme-linked immunosorbent assay.)

Chain of recombinant human CFD mutant 1 (R157A, R207A), His-tagged (human) (P00746 26-253 R182A/R232A limits assumed): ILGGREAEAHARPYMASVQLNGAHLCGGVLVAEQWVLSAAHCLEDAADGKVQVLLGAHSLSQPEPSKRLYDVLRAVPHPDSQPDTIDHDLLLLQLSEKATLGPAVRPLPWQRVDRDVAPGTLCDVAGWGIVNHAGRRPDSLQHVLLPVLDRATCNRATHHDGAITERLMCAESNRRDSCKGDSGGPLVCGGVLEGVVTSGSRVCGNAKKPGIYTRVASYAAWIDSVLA

B1: KCD119 (antibody, V domains shown)
VH: EVQLQQSGPELVKPGASVKISCKASGYTFTDYYTNWMRQRHGESLEWIGDINPNTGDTSYNQKFRVKATLTVDKSSGTAYMGLRSLTSEDSAVYYCTREGPSFAYWGQGTLVTVSA
VL: DVLMTQTPLSLPVSLGDQASISCRSSQTIVHSNGDTYLEWYLQKPGQSPNLLIYKVSNRFSGVPDRFSGSGSGTDFTLKISRVEAEDLGVYYCFQGSHVPPTFGGGTTLEIK
As to B1, the Mut1 Binding (% wt) amounted to 13.6 % wt.
